Article PMC9974498

Columns and labels:
Experiment in all cases: crystal structure
[1] = biological target: recombinant C-terminal StrepII-tagged SbtB from Synechocystis sp. PCC 6803 (ScSbtB), wild type (Synechocystis sp. PCC 6803)
[2] = biological target: recombinant C-terminal StrepII-tagged ScSbtB variant C105A+C110A (Synechocystis sp. PCC 6803)
[3] = biological target: recombinant C-terminal StrepII-tagged ScSbtB variant Δ104 (R-loop truncated from position 104 on) (Synechocystis sp. PCC 6803)

## recombinant C-terminal StrepII-tagged SbtB from Synechocystis sp. PCC 6803 (ScSbtB), wild type (natural protein)
[1]
  stoichiometry N: 3

## recombinant C-terminal StrepII-tagged ScSbtB variant C105A+C110A (natural protein)
[2]
  stoichiometry N: 3

## recombinant C-terminal StrepII-tagged ScSbtB variant Δ104 (R-loop truncated from position 104 on) (domain or fragment)
[3]
  stoichiometry N: 3
